From patent CN112812179A (UNIV BEIJING, dated 2021) come the findings set out here.

In assay [1] the target is T1, 人CMTM6氨基酸序列2到24位氨基酸的多肽 (CMTM6 N2-24) (human, UniProt Q9NX76 2-24, C末端耦联BSA (the BSA conjugate is the one made for ELISA, paragraph 46; the KLH conjugate was used for immunisation)).
T1 construct: range 2-24; also called CMTM6 N2-24多肽; BSA耦联的CMTM6 N2-24多肽
T1 peptide (looked up): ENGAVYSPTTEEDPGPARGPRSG
Briefly: indirect ELISA, serially diluted peptide coated on the plate. For orientation: ELISA stands for enzyme-linked immunosorbent assay.

In assay [2] the target is T2, 人CMTM6 (endogenous, in 786-O cells and colon cancer tissue) (human, UniProt Q9NX76 1-183).
T2 construct: whole, on cells
T2 sequence (looked up): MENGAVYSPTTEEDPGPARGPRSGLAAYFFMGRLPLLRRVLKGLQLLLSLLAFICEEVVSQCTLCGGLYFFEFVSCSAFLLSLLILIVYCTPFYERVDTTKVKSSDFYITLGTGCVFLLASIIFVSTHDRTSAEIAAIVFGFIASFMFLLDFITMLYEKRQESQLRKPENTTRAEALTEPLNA
In words: Western blot of 786-O lysates, compared with CMTM6 knockout clones 2E7 and 4D10. On the technique in general: Immunoblotting shows a protein as a band on a membrane.

Assay [3] has as its target T3, Flag-CMTM6 (overexpressed in HEK293T cells) (human, UniProt Q9NX76 1-183).
T3 construct: Detected in denatured cell lysate by Western blot; the band is 26 kD; also called Flag-CMTM6融合表达载体; not shown: Flag tag
T3 sequence (looked up): T2 sequence (looked up)
Briefly: Western blot of HEK293T lysates, 1 ug/mL primary antibody; empty-vector control gave no signal.

B1: 1-19重链(HC)和轻链(LC)超表达上清 (recombinant 1-19 from HEK293T cells co-transfected with heavy and light chain plasmids) (antibody, V domains shown)
VH: EVQLQQSGAELVKPGASVKLSCASSGFNIKDTYIHWVKRRPEQGLEWIGRIDPANGKTYFHSNFQGKATITADTSSNTAHLELSSLTSEDTAVYYCAFLYDGPIDYWGQGTSVTVSS
VL: DVLMTQTPLSLPVSLGDQASISCRSSQSIVYRDGNTYLDWYLQKPGQSPKLLIYKVSNRFSGVPDRFSGSGSGTDFTLKISRVEAEDLGVYYCFQGSLFPYTFGGGTKLEI
notes: Full-length light and heavy chains amplified from 1-19 hybridoma cDNA, cloned into pcDNA3.1 and expressed in HEK293T; see the note of m1 for the printed FR/CDR pieces; also called 共转染本发明抗体1-19重轻链质粒的HEK293T细胞上清
Regarding B1, the binding result in assay [1] is “binds”.

B2: 鼠抗人CMTM6单克隆抗体1-19 (purified from hybridoma supernatant) (antibody, V domains shown)
VH: B1 VH
VL: B1 VL
notes: also called 1-19mAb; 本发明抗体1-19
For B2, the binding result in assay [2] and in assay [3] was “binds” each time.
